Test [1] concerns the target T1, MET928.6H (hexahistine tagged MET928) (human, UniProt P08581 25-928).
T1 construct: also called MET ectodomain; not shown: hexahistidine tag
Kind of test: plate binding assay: 100 nM MET928.6H added to NK1-coated microplate, bound MET detected with anti-5xHis and DELFIA Eu-N1 anti-mouse IgG (time-resolved fluorescence) [right panel]. As to the method: FAb at 5-500 nM (FIG. 8) was mixed with 100 nM MET928.6H (hexahistine tagged MET928) and the mixture incubated at room temperature for one hour, prior to addition of the MET928.6H/FAb mixture to microplates coated with HGF/SF or the fragment NK1 and a further one-hour incubation. Bound MET928.6H was then detected with anti-5xHis (Qiagen) followed by DELFIA® Eu-N1 rabbit anti-mouse-IgG, exposure to DELFIA® enhancement solution and quantitation by time-resolved fluorescence on a Fusion instrument (Perkin Elmer).

Test [2] deals with T2, MET928 (cMET protein derived from construct 25-928) (human, UniProt P08581 25-928).
T2 construct: MET ectodomain, residues 1-24 are the leader; produced in Lec 8 cells; background text says the ectodomain is furin-cleaved into alpha (25-307) and beta chains; biotinylated form used in selections; also called MET928 extracellular domain; Met extracellular domain
T2 sequence (P08581 25-928): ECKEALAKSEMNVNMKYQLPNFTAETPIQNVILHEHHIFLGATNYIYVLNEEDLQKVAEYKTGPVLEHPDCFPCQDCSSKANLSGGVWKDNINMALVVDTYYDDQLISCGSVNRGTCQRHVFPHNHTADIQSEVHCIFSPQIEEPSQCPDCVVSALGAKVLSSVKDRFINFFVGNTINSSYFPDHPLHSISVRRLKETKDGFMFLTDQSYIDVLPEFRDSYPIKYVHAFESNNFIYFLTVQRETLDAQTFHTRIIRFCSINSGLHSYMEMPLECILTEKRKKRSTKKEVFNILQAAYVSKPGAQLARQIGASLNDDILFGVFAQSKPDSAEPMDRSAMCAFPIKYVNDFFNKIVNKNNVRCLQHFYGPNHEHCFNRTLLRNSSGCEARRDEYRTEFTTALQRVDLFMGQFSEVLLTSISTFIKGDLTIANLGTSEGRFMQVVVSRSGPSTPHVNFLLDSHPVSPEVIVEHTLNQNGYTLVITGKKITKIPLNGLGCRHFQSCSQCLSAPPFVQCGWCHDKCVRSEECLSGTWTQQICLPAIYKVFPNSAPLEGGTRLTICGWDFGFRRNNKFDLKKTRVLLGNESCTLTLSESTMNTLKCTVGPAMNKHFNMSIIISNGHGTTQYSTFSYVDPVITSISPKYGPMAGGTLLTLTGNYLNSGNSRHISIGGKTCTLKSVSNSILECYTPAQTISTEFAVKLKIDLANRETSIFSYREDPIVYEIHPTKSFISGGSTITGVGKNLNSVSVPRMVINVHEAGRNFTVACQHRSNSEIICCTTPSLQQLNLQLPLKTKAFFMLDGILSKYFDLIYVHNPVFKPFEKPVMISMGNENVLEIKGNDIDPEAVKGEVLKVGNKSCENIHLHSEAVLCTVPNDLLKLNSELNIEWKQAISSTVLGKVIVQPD
Description: SPR (Biacore), CM5 chip coated with MET928.

Test [3] has as its target T2, MET928 (cMET protein derived from …). Kind of test: Biacore SPR.
Test [4] addresses T3, MET567 (MET extracellular domain aa 25-567) (human, UniProt P08581 25-567).
T3 construct: beta-propeller + cystine-rich domain
Kind of test: analytical size exclusion chromatography (Superdex 200 10/300) [Cont.]. As to the method: Epitope location was analysed by analytical size exclusion chromatography. […] The mixtures were then centrifuged to remove any debris and analysed on a Superdex 200 10/300 size exclusion column (GE Life Sciences).
For orientation: In gel filtration, larger molecules generally elute earlier.

Test [5] has as its target T2, MET928 (cMET protein derived from …). Description: Biacore SPR, MET928-coated surface, 1:1 kinetic analysis. The text has this: In FIG. 15, “hinged” His-tagged, IMAC-purified Fabs were used.

T3 sequence (P08581 25-567): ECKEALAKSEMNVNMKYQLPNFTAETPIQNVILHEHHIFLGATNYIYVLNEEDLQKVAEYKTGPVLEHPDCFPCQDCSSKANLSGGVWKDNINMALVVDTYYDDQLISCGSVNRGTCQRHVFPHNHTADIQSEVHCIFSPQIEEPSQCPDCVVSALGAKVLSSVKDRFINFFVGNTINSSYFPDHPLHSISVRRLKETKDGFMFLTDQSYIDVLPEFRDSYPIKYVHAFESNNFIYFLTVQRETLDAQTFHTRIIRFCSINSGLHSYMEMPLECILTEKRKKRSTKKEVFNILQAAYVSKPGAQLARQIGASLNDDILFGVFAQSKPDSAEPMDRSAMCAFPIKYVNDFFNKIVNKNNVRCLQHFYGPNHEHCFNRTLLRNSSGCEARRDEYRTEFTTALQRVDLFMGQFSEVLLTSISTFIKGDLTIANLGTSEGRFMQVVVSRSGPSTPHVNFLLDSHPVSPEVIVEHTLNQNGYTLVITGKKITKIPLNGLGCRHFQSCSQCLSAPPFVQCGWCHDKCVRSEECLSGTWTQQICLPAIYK
T1 sequence (P08581 25-928): as the sequence (P08581 25-928) above

B1: NK1 fragment of HGF/SF (produced in Pichia pastoris) (ligand)
chain: EAEAYVEGQRKRRNTIHEFKKSAKTTLIKIDPALKIKTKKVNTADQCADRCTRNKGLPFTCKAFVFDKARKQCLWFPFNSMSSGVKKEFGHEFDLYENKDYIRNCIIGKGRSYKGTVSITKSGIKCQPWSSMIPHEHSFLPSSYRGKDLQENYCRNPRGEEGGPWCFTSNPEVRYEVCDIPQCSEVE
notes: The first two (EA) or four (EAEA) amino acids may be removed during processing; also called NK1.B1; NK1.B2
In the case of B1, the binding result in test [1] and in test [2] was “binds” throughout.

B2: 7A2 Fab (tagless, hinged) (Fab, V domains shown)
VH: QMQLVQSGAEVKKPGAPVKVSCKVSGYTFTDYYMHWVQQAPGKGLEWMGLVDPEDGETIYAEKFQGRVTITADTSTDTAYMELSSLRSEDTAVYYCATDATTPYYGMDVWGQGTLVTVSS
VL: DIQMTQSPSSLSASVGDRVTITCQASQDISNYLNWYQQKPGRAPKVLIYDASNLETGVPSRFSGSGSGTEFTLTISNLRPDDFATYYCQQGDSFPLTFGGGTKVEIKR
notes: Purified on KappaSelect; also called Tagless 7A2
The term Kd denotes the equilibrium constant for the complex coming apart. High values mean a looser complex, low ones a tighter complex. For orientation: koff means the rate constant with which the complex falls apart. Higher therefore signals fast dissociation. As usually defined, the kon is a measure of how fast the partners come together. On to B2, for which, in test [3], the Kd stood at 181 nM, the koff is 0.108 s⁻¹ and the kon worked out at 597000 M⁻¹ s⁻¹. Also, the binding result in test [4] is “no binding (tested: 6 µM Fab with 4 µM MET567)”.

B3: 107_A07 Fab (tagless, native, i.e. not hinged) (Fab, V domains shown)
VH: QMQLVQSGAEVKKPGAPVKVSCKVSGYTFTDYYMHWVQQAPGKGLEWMGLVDPEDGETIYAEKFQGRVTITADTSTDTAYMELSSLRSEDTAVYYCATDATTPYWGMMWWGQGTLVTVSS
VL: DIQMTQSPSSLSASVGDRVTITCQASQDISNYLNWYQQKPGRAPKVLIYDASNLETGVPSRFSGSGSGTEFTLTISNLRPDDFATYYCQQGDSFPLTFGGGTKVEIKR
In the case of B3, in test [5], the affinity, expressed as Kd, was 4.2 nM; the koff turned out to be 0.0075 s⁻¹; the kon is 1.8e+06 M⁻¹ s⁻¹. In addition, in test [4], the binding result is “no binding (tested: 6 µM Fab with 4 µM MET567)”.

The record behind these values is patent publication US20150147274A1 (CANCER RESEARCH TECHNOLOGY, published 2015).
